{"source": "patent US20220204610A1", "about": "“PROTEIN BINDERS FOR IRHOM2” (NEW YORK SOCIETY FOR THE RELIEF OF THE RUPTURED AND …, priority 2019, published 2022)", "molecules": {"B1": {"name": "4H8-E3: Mouse IgM monoclonal antibody against the human iRhom2 juxtamembrane domain adjacent to TMD1; HC VD SEQ ID NO 33, LC VD SEQ ID NO 40 (antibody, V domains shown)", "VH": "EVQLQQSGPELVKPGASVKISCKASGYTFTDYYMNWVKQSHGKSLEWIGDINPNNGGTSYNQKFKGKATLTVDKSSNTAYMEFRSLTSEDSAVYYCARRGYYGVDYWGQGTTLTVSS", "VL": "NIVMTQSPKSMSMSVGERVTLNCKASENVGTYVSWYQQKPEQSPKLLIFGASNRYTGVPDRFIGSGFATDFTLTISSVQAEDLADYHCGQSYSYPYTFGGGTKLEIK", "modifications": "IgM constant regions; antibody sequence"}}, "key": {"human iRhom2 [1]": {"target": "T1, human iRhom2 (Homo sapiens, UniProt Q6PJF5)", "T1 construct": "made in house; host or cells: chemical synthesis (Fmoc solid phase peptide synthesis), no expression host", "T1 sequence (Q6PJF5 431-459)": "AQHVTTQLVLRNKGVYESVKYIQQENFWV", "assay": "Peptide binding ELISA, target region determination (Example 9)", "settings": "antibody 3 μg/ml; peptide coated at 10 μg/ml; normalized to IgM isotype control", "procedure": "(§1) Next, peptide binding ELISA analyses were performed to verify whether the purified antibody 4H8-E3 of the invention recognizes any of the peptides that were administered to those animals the hybridoma clone 4H8 was derived from, thereby shedding light on the target region being recognized by the antibody 4H8-E3 of the invention.\n(§2) In brief, on day 1, Nunc black MaxiSorp® 96-well plates (Thermo Fisher Scientific, USA) were coated overnight with 100 μl per well of single biotinylated peptides 1 to 11 as well as mixes of peptides 1 to 4 (Mix A), 5 to 7 (Mix B), and 8 to 11 (Mix C) at 10 μg/ml TBS each (thus, the final concentration of each peptide in mixes 1 to 4 and 8 to 11 was 2.5 μg/ml versus 3.3 μg/ml in mix 5 to 7) at 4° C. On day 2, peptide solutions were removed and MaxiSorp® plates were blocked with 300 μl per well of Pierce protein-free (TBS) blocking buffer (Thermo Fisher Scientific, USA) at room temperature for 1.5 hours. The blocking buffer was then removed and plates were washed 4 times with 350 μl per well of TBS-T (Carl Roth, Germany) on a 96-head plate washer (Tecan Group, Switzerland). Afterwards, 100 μl per well of TBS as blank control, mouse anti-biotin antibody (clone BN-34, Sigma-Aldrich, USA) at 0.3 μg/ml TBS as coating control, the purified antibody 4H8-E3 of the invention at 3 μg/ml TBS, and mouse IgM antibody (clone MOPC 104E, Sigma-Aldrich, USA) as isotype control to the purified antibody 4H8-E3 of the invention at 3 μg/ml TBS were added to wells pre-coated with single peptides 1 to 11 or respective mixes and incubated at room temperature for 4 hours. Subsequently, the plates were washed 4 times with 350 μl per well of TBS-T (Carl Roth, Germany) on a 96-head plate washer (Tecan Group, Switzerland) again and, protected from direct light, were incubated with 100 μl per well of AP-conjugated goat anti mouse IgG/IgG/IgM F(ab′)2 fragment (Sigma-Aldrich, USA) diluted 1:2,000 in TBS for 1 hour at room temperature. Following another round of 4 washing steps with 350 μl per well of TBS-T (Carl Roth, Germany) on a 96-head plate washer (Tecan Group, Switzerland) and careful removal of all buffer traces after the fourth cycle, 100 μl of AttoPhos substrate solution (Promega, USA) were added for incubation in the dark and at room temperature for 1 hour. Using an infinite M1000 PRO (Tecan Group, Switzerland) microplate reader, the fluorescence of each well was collected at an excitation wavelength of 435 nm and an emission wavelength of 555 nm."}, "human iRhom2 [2]": {"system": "human iRhom2", "assay": "Peptide binding ELISA, target region determination (Example 9)", "settings": "antibody 3 μg/ml, normalized to IgM isotype control", "procedure": "as §1, §2"}, "human iRhom2 [3]": {"target": "T2, human iRhom2 (Homo sapiens, UniProt Q6PJF5)", "T2 construct": "the single peptide 3 resembling amino acids 431 to 459 of the extracellular juxtamembrane domain of human iRhom2; made in house; host or cells: chemical synthesis (Fmoc solid phase peptide synthesis), no expression host", "T2 sequence (Q6PJF5 with tags, fused parts or gaps)": "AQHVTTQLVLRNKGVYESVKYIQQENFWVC", "assay": "Peptide binding ELISA, binding specificity (Example 10), iRhom2 peptides", "settings": "antibody 3 μg/ml PBS; peptide coated at 10 μg/ml; normalized to IgM isotype control", "procedure": "(§3) Another series of peptide binding ELISA experiments was conducted to address the specificity of the purified antibody 4H8-E3 of the invention, i.e. to question whether this antibody specifically recognizes peptides, in particular peptide 3, resembling the extracellular juxtamembrane region adjacent to the TMD1 of human iRhom2, or whether the antibody 4H8-E3 of the invention also binds to peptides reflecting the homologous region of the closely related family member human iRhom1.\n(§4) In brief, on day 1, Nunc black MaxiSorp® 96-well plates (Thermo Fisher Scientific, USA) were coated overnight with 100 μl per well of single biotinylated peptides 1 to 4, Mix A consisting of peptides 1 to 4, single biotinylated peptides 1b to 4b, and Mix D consisting of peptides 1b to 4b at 10 μg/m1 PBS each (thus, the final concentration of each peptide in both mixes was 2.5 μg/m1) at 4° C. On day 2, peptide solutions were removed and MaxiSorp® plates were blocked with 300 μl per well of Pierce protein-free (TBS) blocking buffer (Thermo Fisher Scientific, USA) at room temperature for 1.5 hours. […] Using an infinite M1000 PRO (Tecan Group, Switzerland) microplate reader, the fluorescence of each well was collected at an excitation wavelength of 435 nm and an emission wavelength of 555 nm."}, "human iRhom2 [4]": {"system": "human iRhom2", "assay": "Peptide binding ELISA, binding specificity (Example 10), iRhom2 peptides", "settings": "antibody 3 μg/ml PBS; peptides coated at 10 μg/ml; normalized to IgM isotype control", "procedure": "as §3, §4"}, "[5]": {"settings": "peptides coated individually or as mix"}}, "data": [{"molecule": "B1", "values": [{"measurement": "binding to single peptide 3 (amino acids 431 to 459 of human iRhom2 juxtamembrane domain)", "setting": "human iRhom2 [1]", "value": "strong binding"}, {"measurement": "binding to Mix A consisting of peptides 1, 2, 3 and 4", "setting": "human iRhom2 [2]; biotinylated peptides coated at 10 μg/ml", "value": "strong binding"}, {"measurement": "binding to peptides 5, 6 and 7 (large extracellular loop)", "setting": "human iRhom2 [2]; [5]", "value": "no binding"}, {"measurement": "binding to peptides 8, 9, 10 and 11 (C-terminal tail of human iRhom2)", "setting": "human iRhom2 [2]; [5]", "value": "no binding"}, {"measurement": "binding to single peptide 3 (amino acids 431 to 459 of human iRhom2)", "setting": "human iRhom2 [3]", "value": "Binding"}, {"measurement": "binding to Mix A consisting of peptides 1, 2, 3 and 4", "setting": "human iRhom2 [4]", "value": "Binding"}]}]}
